Biological target: T1, TaNAC016-3A (Triticum aestivum, UniProt A0A3B6EBU1 1-353)
T1 sequence: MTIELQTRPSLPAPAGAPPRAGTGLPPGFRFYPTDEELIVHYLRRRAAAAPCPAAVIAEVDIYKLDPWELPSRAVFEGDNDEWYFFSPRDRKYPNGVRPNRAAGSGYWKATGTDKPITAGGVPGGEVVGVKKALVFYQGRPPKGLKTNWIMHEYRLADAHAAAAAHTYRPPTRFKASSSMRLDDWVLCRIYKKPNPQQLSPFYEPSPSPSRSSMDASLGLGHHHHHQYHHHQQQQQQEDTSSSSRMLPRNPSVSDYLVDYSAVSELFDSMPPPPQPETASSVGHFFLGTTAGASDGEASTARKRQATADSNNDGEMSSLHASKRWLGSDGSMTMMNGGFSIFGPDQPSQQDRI
Test: EMSA

B1: proTaPAO-4B EMSA probe (PAOsite2) (dsDNA)
DNA 1: AAGGATGGCCGGCACTTACGCAACCTGTCCTTAGACCCCCACAGAAC
DNA 2: GTTCTGTGGGGGTCTAAGGACAGGTTGCGTAAGTGCCGGCCATCCTT
  binding result: binds
